# Patent US6013258A, “Immunogenic peptides from the HPV E7 protein” (priority 1997, dated 2000)
# Biological target: T1, recombinant HLA-A2 (Homo sapiens, UniProt P04439, D140Y/D185E/D98H/E176V/E277Q/G131W/G231S/I119V/I121R/I166T/I218V/N151K/N90K/P208A/P217A/Q86G/Q94H/R138H/R169H)
# T1 construct: made in house; host or cells: E. coli
# Type: binding
# Conditions: peptide-HLA-A2 complex, monitored by circular dichroism
substance,measurement,value
"A2.2: peptide derived from HPV strain 16 E7 protein, SEQ ID NO:17 (YMLDLQPET) [Peptide A2.2]",Tm (temperature at which 50% of the refolded complexes are melted),52.5 degrees Celsius
